According to patent publication US20130263331A1:
pKd: −log10 of the molar value.

Key:
[1] = target: putative receptor(s) on brush border membrane vesicles (BBMV) prepared from midguts of third instars of the western corn rootworm (Diabrotica virgifera virgifera LeConte) (Diabrotica virgifera virgifera)
[2] = target: putative receptor(s) on brush border membrane vesicles (BBMV) prepared from midguts of third instars of the western corn rootworm (Diabrotica virgifera virgifera LeConte) (Diabrotica virgifera virgifera); assay: Homologous competition: unlabeled Cry3Aa (0-2500 nM) against 5 nM 125I-Cry3Aa on 0.1 mg/ml BBMV; value at about 2500 nM competitor

Row | Substance | pKd [1] | binding site concentration Bmax (pmole/mg BBMV) [1] | percent of bound 125I-Cry3Aa displaced [2]
1 | Cry3Aa trypsin core (from UniProt P0A379 159-644) | 7.62 | 22 | 60%
2 | Full-length Cry6Aa1 (from UniProt Q45757 1-475) | 7.99 | 0.66 | –
